Test [1] concerns the target T1, PAR1 receptor (1–425 amino acids) Y350A (human) (UniProt P25116).
T1 sequence: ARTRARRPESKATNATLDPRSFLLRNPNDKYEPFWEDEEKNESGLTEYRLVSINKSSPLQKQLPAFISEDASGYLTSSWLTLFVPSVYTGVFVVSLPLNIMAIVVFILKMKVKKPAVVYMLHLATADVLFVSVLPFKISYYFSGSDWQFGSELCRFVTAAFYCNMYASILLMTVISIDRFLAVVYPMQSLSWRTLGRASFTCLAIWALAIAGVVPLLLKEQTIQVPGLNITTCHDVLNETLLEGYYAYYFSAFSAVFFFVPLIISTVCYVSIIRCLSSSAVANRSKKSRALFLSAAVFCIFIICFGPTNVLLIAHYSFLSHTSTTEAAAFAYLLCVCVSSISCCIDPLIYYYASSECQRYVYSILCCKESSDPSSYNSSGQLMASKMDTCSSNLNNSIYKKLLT

The target in test [2] is T2, PAR1 receptor (1–425 amino acids) D256A (human) (UniProt P25116).
T2 sequence: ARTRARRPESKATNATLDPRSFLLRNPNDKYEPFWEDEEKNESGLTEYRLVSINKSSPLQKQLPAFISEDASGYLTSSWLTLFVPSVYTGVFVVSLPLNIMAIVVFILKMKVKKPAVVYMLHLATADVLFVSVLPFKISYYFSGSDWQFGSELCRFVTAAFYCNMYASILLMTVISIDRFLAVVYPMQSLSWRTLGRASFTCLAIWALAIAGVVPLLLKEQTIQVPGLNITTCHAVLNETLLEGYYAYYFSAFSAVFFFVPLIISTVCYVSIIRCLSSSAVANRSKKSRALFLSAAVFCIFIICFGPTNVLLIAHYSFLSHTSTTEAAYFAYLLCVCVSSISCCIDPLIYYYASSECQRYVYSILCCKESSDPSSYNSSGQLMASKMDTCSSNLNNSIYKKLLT

As to SFLLRN [Synthesized TA peptide (SFLLRN)], the NanoBiT Gαq–Gγ dissociation in HEK293T cells induced by the synthesized TA peptide; fold decrease of potency against WT PAR1 in test [1] amounted to 158 fold; in test [2], 33 fold.

Source of the values: PMC11443083.
